B1: PCDHGA10 (parent)
chain: FGIEIEVTDINDNAPKFQAENLDV
B2: FUT8 (parent)
chain: NWRYATGGWETVFRPVSETCTDRS

Variants of: B1
Test: protein stability index of a GFP-peptide fusion (GPS, HEK-293T) (PSI 1-6); higher = more stable
Settings: c terminus: a fixed tail appended
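Further: lentivirally expressed fusions sorted by FACS into six bins by GFP to DsRed ratio, PSI derived from sequencing read proportions per bin multiplied by bin number.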

Protein stability index, by site and new letter:
A19: G 3.51, P 2.6, Q 3.32, D 3.56, W 1.59, C 2.59, H 3.18, R 3, V 2.37, L 2, E 3.83, M 2.53, T 2.84, N 2.82, K 3.37, F 2.42, Y 1.95, S 2.62, I 2.26
I10: L 2.63, M 3.28, T 3.28, G 3.67, N 4.14, A 3.61, S 3.91, F 2.4, K 4.61, E 4.23, W 2.03, V 3.24, H 4.04, D 4.78, Q 4.05, C 3.4, Y 2.81, P 3.83, R 3.73
D9: S 1.85, I 1.32, Y 3.18, P 2.53, T 1.96, V 2.58, Q 2.15, M 1.96, N 2.73, R 2.04, K 2.45
P15: N 3.6, Y 2.23, L 2.41, C 2.5, I 2.25, W 2.05, T 3.41, K 3.51, D 3.62, S 3.14, V 2.55, E 3.24, R 3.36, H 2.73, F 1.84, M 2.66, A 3.37, Q 3.11, G 3.52
N21: Q 2.8, I 1.84, S 2.54, V 2.33, G 2.83, W 1.37, L 2.13, R 2.07, A 2.49, D 3.65, E 3.46, C 2.47, H 2.82, T 2.89, K 3.25, F 1.84, P 2.6, M 2.42, Y 1.73
Q18: M 2.13, K 3, D 3.56, E 3.33, I 2.13, A 2.88, H 2.93, L 2.26, T 2.77, C 2.44, F 1.68, W 1.93, V 2.54, N 3.25, G 2.94, S 2.1, Y 1.53, P 2.41, R 2.08
L22: A 3.34, S 4.17, E 4.39, V 3.42, C 3.27, T 3.65, R 3.7, D 4.21, N 3.69, Q 3.71, F 2.66, H 3.4, Y 2.83, W 2.53, K 4.02, P 3.36, M 2.84, I 3.02, G 3.97
N13: Y 1.78, T 3.1, E 3.35, G 2.99, P 2.83, V 2.27, I 2.66, R 2.67, C 2.52, F 1.84, M 2.08, K 3.12, L 1.91, W 1.54, Q 3.21, H 2.36, A 2.85, D 3.43, S 2.48
F17: P 4.03, S 3.98, C 3.73, W 2.52, A 4.12, R 3.9, G 3.94, H 4.28, Y 3.18, I 3.37, T 4.14, K 4.42, N 4.15, L 3.33, E 4.81, Q 4.14, M 3.58, V 3.65, D 4.36
V24: N 3.28, H 3.6, R 3.71, F 2.64, S 3.5, E 3.46, C 2.8, L 3.43, W 2.81, G 3.7, K 3.52, P 3.4, Y 2.93, T 3.47, I 2.56, A 3.48, Q 3.62, M 2.5, D 4.22
D23: Y 1.69, F 1.55, Q 2.42, T 1.95, R 1.93, C 1.82, W 1.46, K 2.08, M 2.52, G 2.29, A 2.3, E 2.59, P 2.32, N 2.85, V 2.56, H 1.8, S 2.06, L 2.17, I 1.93
D12: T 1.99, K 2.98, L 1.49, C 1.8, V 2.05, S 2.25, E 3.13, A 2.28, G 2.58, I 1.84, H 2.16, Q 2.71, P 2.42, N 2.15, W 1.6, Y 1.56, R 2.48, F 1.94, M 1.75
A14: I 2.49, E 3.83, L 1.98, R 2.83, K 3.1, Y 1.71, P 2.69, W 1.67, M 2.42, H 2.79, N 3.35, F 2.35, V 3.4, S 3.13, T 2.9, D 3.89, C 2.46, Q 3.58, G 3.08
E20: K 2.08, N 2.27, H 2.02, W 2.11, Y 2.59, S 2.71, I 2.72, C 1.61, R 1.83, T 2.34, V 1.91, M 2.06, D 2.82, A 2.15, L 1.33, P 2.13, G 2.11, Q 2.4, F 2.51
N11: G 2.66, S 2.84, H 2.41, Y 1.76, V 2.3, K 2.99, Q 2.52, C 2.28, W 1.96, D 3.54, L 1.77, A 2.88, F 1.33, P 2.73, R 2.73, E 2.94, M 2.15, T 2.26, I 2.04
K16: P 3.31, A 2.53, W 1.72, G 3.56, F 2.21, V 2.64, M 3.07, T 2.91, Y 2.18, N 2.94, L 2.31, I 2.48, E 3.88, D 3.46, H 2.76, C 2.45, R 3.02, S 2.52, Q 3.35

Variants of: B2
Test: as above
Settings: c terminus: a fixed tail appended

Protein stability index of substitutions, site by site:
W2: F 3.12, E 3.94, Q 3.96, G 3.72, C 2.52, P 4.16, S 3.25, A 3.77, V 3.26, D 3.72, N 3.55, Y 2.74, T 3.83, M 3.52, H 4
N1: G 2.12, V 1.83, S 2.12, R 2.23, I 3.1, W 1.53, C 2.35, H 2.74, M 1.12, T 1.68, Y 2.88, K 2.4, D 1.7, Q 4.02, E 2.44, L 1.99, A 1.16
R3: E 3.75, G 3, C 2.76, F 1.97, A 3.58, D 3.62

From the supplement of paper PMC10567573
